Reference: patent US7067277 (H LUNDBECK A S, dated 2006)
Residue numbers refer to the chain shown, from its start.

T1: human 5HT1F receptor (human, UniProt P30939 1-366)
T1 sequence (looked up): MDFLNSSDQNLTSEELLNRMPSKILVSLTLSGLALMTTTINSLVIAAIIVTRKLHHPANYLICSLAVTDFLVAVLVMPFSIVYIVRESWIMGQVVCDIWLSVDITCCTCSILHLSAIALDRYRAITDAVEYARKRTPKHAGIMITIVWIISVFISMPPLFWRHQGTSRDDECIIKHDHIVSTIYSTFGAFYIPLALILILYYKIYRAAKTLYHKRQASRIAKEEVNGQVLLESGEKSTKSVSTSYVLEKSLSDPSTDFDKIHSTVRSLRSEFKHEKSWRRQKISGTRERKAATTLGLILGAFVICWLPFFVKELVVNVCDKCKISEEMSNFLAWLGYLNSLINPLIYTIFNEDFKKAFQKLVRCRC

T2: rat GALR3 receptor (rat, UniProt O88626 1-370)
T2 sequence (looked up): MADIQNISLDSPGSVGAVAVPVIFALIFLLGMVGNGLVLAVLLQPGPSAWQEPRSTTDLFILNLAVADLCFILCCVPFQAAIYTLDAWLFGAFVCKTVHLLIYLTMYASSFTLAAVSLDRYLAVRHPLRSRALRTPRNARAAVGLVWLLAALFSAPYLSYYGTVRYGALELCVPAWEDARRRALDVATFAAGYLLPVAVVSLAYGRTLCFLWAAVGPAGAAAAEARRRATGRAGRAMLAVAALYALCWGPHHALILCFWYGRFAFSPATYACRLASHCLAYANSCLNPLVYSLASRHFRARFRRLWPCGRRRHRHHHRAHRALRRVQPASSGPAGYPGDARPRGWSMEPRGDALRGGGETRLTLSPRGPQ

T3: rat GALR2 receptor (rat, UniProt O08726 1-372)
T3 sequence (looked up): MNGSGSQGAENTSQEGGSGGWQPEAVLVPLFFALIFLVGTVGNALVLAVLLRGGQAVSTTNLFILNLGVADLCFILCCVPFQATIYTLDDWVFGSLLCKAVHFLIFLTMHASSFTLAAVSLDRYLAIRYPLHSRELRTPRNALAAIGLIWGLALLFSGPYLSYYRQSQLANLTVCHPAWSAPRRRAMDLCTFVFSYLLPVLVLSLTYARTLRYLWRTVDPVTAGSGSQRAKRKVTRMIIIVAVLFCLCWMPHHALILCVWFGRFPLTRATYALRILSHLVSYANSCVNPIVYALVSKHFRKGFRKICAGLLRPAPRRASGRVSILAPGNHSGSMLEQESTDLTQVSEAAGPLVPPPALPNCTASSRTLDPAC

T4: human GALR2 receptor (human, UniProt O43603 1-387)
T4 sequence (looked up): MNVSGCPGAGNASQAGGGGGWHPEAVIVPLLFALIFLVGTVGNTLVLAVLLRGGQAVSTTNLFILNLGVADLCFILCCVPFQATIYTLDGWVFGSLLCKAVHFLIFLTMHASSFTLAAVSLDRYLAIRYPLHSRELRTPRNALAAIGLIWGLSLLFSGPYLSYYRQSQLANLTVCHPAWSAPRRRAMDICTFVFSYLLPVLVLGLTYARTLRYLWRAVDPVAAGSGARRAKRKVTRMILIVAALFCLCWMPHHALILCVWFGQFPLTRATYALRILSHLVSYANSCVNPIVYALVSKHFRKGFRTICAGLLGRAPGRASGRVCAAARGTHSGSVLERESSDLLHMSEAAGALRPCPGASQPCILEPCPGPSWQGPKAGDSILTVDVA

T5: human GALR1 receptor (human, UniProt P47211 1-349)
T5 sequence (looked up): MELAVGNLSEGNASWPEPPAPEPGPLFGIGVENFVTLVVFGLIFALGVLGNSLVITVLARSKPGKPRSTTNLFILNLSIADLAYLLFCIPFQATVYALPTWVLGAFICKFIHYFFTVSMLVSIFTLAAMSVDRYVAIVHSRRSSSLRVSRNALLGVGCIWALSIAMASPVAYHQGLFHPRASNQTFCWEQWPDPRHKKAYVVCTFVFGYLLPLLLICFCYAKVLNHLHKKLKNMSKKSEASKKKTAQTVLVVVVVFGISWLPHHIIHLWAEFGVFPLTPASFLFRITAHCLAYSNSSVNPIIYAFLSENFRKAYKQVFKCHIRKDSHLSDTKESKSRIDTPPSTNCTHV

T6: human Y1 receptor (human, UniProt P25929 1-384)
T6 sequence (looked up): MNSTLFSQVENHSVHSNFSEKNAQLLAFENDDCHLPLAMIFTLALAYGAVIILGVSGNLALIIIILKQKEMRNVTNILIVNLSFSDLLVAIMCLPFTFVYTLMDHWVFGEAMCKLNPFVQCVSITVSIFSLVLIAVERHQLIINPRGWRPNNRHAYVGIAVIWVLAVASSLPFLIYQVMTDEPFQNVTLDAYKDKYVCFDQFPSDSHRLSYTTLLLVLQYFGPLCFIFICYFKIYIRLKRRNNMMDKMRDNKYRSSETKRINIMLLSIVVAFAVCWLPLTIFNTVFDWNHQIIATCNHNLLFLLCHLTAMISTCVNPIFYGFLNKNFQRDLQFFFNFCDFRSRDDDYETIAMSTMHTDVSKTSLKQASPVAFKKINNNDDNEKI

B1: Human Gαq/z5 (Ala→Ser substitution at position 171) (other)
chain: MTLESIMACCLSEEAKEARRINDEIERQLRRDKRDARRELKLLLLGTGESGKSTFIKQMRIIHGSGYSDEDKRGFTKLVYQNIFTAMQAMIRAMDTLKIPYKYEHNKAHAQLVREVDVEKVSAFENPYVDAIKSLWNDPGIQECYDRRREYQLSDSTKYYLNDLDRVADPSYLPTQQDVLRVRVPTTGIIEYPFDLQSVIFRMVDVGGQRSERRKWIHCFENVTSIMFLVALSEYDQVLVESDNENRMEESKALFRTIITYPWFQNSSVILFLNKKDLLEEKIMYSHLVDYFPEYDGPQRDAQAAREFILKMFVDLNPDSDKIIYSHFTCATDTENIRFVFAAVKDTILQLNLKYIGLC
B2: C. elegans Gαq/z5 (other)
chain: MACCLSEEAREQKRINQEIEKQLQRDKRNARRELKLLLLGTGESGKSTFIKQMRIIHGQGYSEEDKRAHIRLVYQNVFMAIQSMIRAMDTLDIKFGNESEELQEKAAVVREVDFESVTSFEEPYVSYIKELWEDSGIQECYDRRREYQLTDSAKYYLSDLRRLAVPDYLPTEQDILRVRVPTTGIIEYPFDLEQIIFRMVDVGGQRSERRKWIHCFENVTSIMFLVALSEYDQVLVECDNENRMEESKALFRTIITYPWFTNSSVILFLNKKDLLEEKILYSHLADYFPEYDGPPRDPIAAREFILKMFVDLNPDADKIIYSHFTCATDTENIRFVFAAVKDTILQHNLKYIGLC
B3: C. elegans Gαq/z9 (other)
chain: B2 chain with H347N

Biological target: human dopamine D3 receptor (human, UniProt P35462 1-400)
Test: cell-based or functional assay

Chain of human dopamine D3 receptor (P35462 whole entry): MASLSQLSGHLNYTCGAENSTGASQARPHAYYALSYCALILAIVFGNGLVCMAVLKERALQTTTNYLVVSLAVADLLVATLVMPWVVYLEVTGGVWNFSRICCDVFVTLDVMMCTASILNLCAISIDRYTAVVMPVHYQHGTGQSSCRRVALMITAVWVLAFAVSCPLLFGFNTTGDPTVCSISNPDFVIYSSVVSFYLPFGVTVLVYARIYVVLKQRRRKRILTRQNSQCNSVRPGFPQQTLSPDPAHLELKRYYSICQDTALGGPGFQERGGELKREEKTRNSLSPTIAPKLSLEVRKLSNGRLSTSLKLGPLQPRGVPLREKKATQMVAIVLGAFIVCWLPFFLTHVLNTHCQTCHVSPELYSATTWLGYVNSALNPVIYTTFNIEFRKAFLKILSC

B1 and B2 are the same in “max Ca2+ signal, COS-7, FLIPR; agonist DA” value: 0 fluorescence units for the first, 0 fluorescence units for the second.

With B3 the “max Ca2+ signal, COS-7, FLIPR; agonist DA” value was 121 fluorescence units.

Biological target: human GLP-1 receptor (human, UniProt P43220 24-463)
Test: cell-based or functional assay

Going from B1 to B2, the “max Ca2+ signal, COS-7, FLIPR; agonist GLP-1” value falls from 287 fluorescence units to 131 fluorescence units.

With B3 the “max Ca2+ signal, COS-7, FLIPR; agonist GLP-1” value was 135 fluorescence units.

Biological target: T1, human 5HT1F receptor
Test: cell-based or functional assay

Going from B1 to B2, the “max Ca2+ signal, COS-7, FLIPR; agonist 5HT” value (“max Ca2+ signal … agonist 5HT” for short) rises from 0 fluorescence units to 243 fluorescence units.

In the case of B3, the “max Ca2+ signal … agonist 5HT” value is reported as 384 fluorescence units.

Biological target: human 5HT1B receptor (human, UniProt P28222 1-390)
Test: cell-based or functional assay

Chain of human 5HT1B receptor (P28222 whole entry): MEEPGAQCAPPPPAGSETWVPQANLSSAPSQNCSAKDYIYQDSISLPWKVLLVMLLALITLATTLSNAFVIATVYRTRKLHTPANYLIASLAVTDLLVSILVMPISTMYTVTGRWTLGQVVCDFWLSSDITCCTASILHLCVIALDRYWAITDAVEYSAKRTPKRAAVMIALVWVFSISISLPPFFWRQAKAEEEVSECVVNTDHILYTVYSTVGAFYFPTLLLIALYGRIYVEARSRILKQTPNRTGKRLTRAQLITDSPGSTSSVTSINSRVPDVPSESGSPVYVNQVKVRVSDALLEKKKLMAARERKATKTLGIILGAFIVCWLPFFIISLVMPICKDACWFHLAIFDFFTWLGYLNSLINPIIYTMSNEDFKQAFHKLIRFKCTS

Going from B1 to B2, the “max Ca2+ signal … agonist 5HT” value rises from 405 fluorescence units to 929 fluorescence units.

For B3, the “max Ca2+ signal … agonist 5HT” value was 1220 fluorescence units.

Biological target: T2, rat GALR3 receptor
Test: cell-based or functional assay

Compared with B1, B2 is lower in “max Ca2+ signal, COS-7, FLIPR; agonist GAL” value (from here on “max Ca2+ signal … agonist GAL”): 2800 fluorescence units for the first, 2300 fluorescence units for the second.

For B3, the “max Ca2+ signal … agonist GAL” value was 2970 fluorescence units.

Biological target: human MCH receptor (human, UniProt Q99705 1-353)
Test: cell-based or functional assay

Chain of human MCH receptor (Q99705 whole entry): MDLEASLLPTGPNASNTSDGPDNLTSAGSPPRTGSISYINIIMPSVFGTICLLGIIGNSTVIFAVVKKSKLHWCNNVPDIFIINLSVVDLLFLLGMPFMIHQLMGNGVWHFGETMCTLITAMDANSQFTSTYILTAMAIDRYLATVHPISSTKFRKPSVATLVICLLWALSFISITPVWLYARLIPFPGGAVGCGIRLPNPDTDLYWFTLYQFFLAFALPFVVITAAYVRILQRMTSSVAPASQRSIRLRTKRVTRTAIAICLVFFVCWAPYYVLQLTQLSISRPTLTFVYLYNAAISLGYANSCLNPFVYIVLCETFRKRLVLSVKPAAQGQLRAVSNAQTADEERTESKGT

Going from B1 to B2, the “max Ca2+ signal, COS-7, FLIPR; agonist MCH” value rises from 783 fluorescence units to 2700 fluorescence units.

For B3, the “max Ca2+ signal, COS-7, FLIPR; agonist MCH” value was 3330 fluorescence units.

Biological target: T3, rat GALR2 receptor
Test: cell-based or functional assay

Compared with B1, B2 is lower in “max Ca2+ signal … agonist GAL” value: 4860 fluorescence units for the first, 4200 fluorescence units for the second.

In the case of B3, the “max Ca2+ signal … agonist GAL” value is reported as 4470 fluorescence units.

Biological target: T4, human GALR2 receptor
Test: cell-based or functional assay

First: B1
Second: B2
The “max Ca2+ signal … agonist GAL” value of the first is higher: 5990 fluorescence units for the first, 5470 fluorescence units for the second.

B3 was tested, and the “max Ca2+ signal … agonist GAL” value was 4900 fluorescence units.

Biological target: human NPFF1 receptor (human, UniProt Q9GZQ6 1-430)
Test: cell-based or functional assay

Chain of human NPFF1 receptor (Q9GZQ6 whole entry): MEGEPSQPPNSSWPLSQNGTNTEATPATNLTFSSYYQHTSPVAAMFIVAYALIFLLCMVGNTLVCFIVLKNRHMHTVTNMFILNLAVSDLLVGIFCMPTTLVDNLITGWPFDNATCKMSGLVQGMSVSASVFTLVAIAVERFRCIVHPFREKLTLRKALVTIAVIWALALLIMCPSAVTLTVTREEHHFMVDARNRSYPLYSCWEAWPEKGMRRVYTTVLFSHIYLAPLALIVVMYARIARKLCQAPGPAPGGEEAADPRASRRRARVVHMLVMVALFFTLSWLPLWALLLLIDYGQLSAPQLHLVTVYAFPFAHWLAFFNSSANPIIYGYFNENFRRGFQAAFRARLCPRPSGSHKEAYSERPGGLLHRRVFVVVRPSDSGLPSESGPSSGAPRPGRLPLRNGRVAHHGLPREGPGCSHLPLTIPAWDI

Going from B1 to B2, the “max Ca2+ signal, COS-7, FLIPR; agonist NPFF” value rises from 4720 fluorescence units to 6590 fluorescence units.

For B3, the “max Ca2+ signal, COS-7, FLIPR; agonist NPFF” value was 2970 fluorescence units.

Biological target: T5, human GALR1 receptor
Test: cell-based or functional assay

First: B1
Second: B2
The “max Ca2+ signal … agonist GAL” value of the first is lower: 4060 fluorescence units for the first, 7650 fluorescence units for the second.

With B3 the “max Ca2+ signal … agonist GAL” value was 8490 fluorescence units.

Biological target: T6, human Y1 receptor
Test: cell-based or functional assay

Compared with B1, B2 is higher in “max Ca2+ signal, COS-7, FLIPR; agonist NPY” value: 1880 fluorescence units for the first, 7720 fluorescence units for the second.

For B3, the “max Ca2+ signal, COS-7, FLIPR; agonist NPY” value was 6730 fluorescence units.

Biological target: human Y4 receptor (human, UniProt P50391 1-375)
Test: cell-based or functional assay

Chain of human Y4 receptor (P50391 whole entry): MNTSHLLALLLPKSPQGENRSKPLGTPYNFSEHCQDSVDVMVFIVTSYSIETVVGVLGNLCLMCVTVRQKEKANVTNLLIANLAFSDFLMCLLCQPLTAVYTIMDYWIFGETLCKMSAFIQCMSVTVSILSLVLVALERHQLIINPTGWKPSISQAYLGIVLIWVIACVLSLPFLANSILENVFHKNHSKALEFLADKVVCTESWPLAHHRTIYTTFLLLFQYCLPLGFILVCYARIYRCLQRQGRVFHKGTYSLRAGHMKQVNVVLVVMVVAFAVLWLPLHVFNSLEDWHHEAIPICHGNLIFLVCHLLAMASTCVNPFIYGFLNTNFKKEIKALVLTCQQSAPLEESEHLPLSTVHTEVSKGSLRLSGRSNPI

First: B1
Second: B2
The “max Ca2+ signal, COS-7, FLIPR; agonist PP” value of the first is higher: 9970 fluorescence units for the first, 9420 fluorescence units for the second.

For B3, the “max Ca2+ signal, COS-7, FLIPR; agonist PP” value was 7400 fluorescence units.
